{
  "source": "ChEMBL document CHEMBL1143427",
  "about": "“Interactions of ceftobiprole with beta-lactamases from molecular classes A to D” (Antimicrob Agents Chemother, 2007)",
  "key": {"[1]": {"test_system": "CC(C)(O/N=C(\\C(=O)N[C@@H]1C(=O)N2C(C(=O)[O-])=C(C[n+]3ccccc3)CS[C@H]12)c1csc(N)n1)C(=O)O", "assay": "(§1) Activity of Morganella morganii AmpC assessed as drug hydrolysis by spectrophotometry"}, "[2]": {"test_system": "CC1(C)S[C@@H]2[C@H](NC(=O)Cc3ccccc3)C(=O)N2[C@H]1C(=O)O", "assay": "as §1"}, "[3]": {"test_system": "CO/N=C(\\C(=O)N[C@@H]1C(=O)N2C(C(=O)[O-])=C(C[N+]3(C)CCCC3)CS[C@H]12)c1csc(N)n1", "assay": "as §1"}, "[4]": {"test_system": "Nc1nc(/C(=N/O)C(=O)N[C@@H]2C(=O)N3C(C(=O)O)=C(/C=C4\\CCN([C@@H]5CCNC5)C4=O)CS[C@H]23)ns1", "assay": "as §1"}, "[5]": {"test_system": "O=C(Cc1cccs1)N[C@@H]1C(=O)N2C(C(=O)O)=C(/C=C/c3ccc([N+](=O)[O-])cc3[N+](=O)[O-])CS[C@H]12", "assay": "as §1"}, "[6]": {"test_system": "O=C(Cc1cccs1)N[C@@H]1C(=O)N2C(C(=O)[O-])=C(C[n+]3ccccc3)CS[C@H]12", "assay": "as §1"}, "[7]": {"test_system": "CC(C)(O/N=C(\\C(=O)N[C@@H]1C(=O)N2C(C(=O)[O-])=C(C[n+]3ccccc3)CS[C@H]12)c1csc(N)n1)C(=O)O", "assay": "(§2) Ratio of Kcat to Km of Morganella morganii AmpC assessed as drug hydrolysis by spectrophotometry"}, "[8]": {"test_system": "CC1(C)S[C@@H]2[C@H](NC(=O)Cc3ccccc3)C(=O)N2[C@H]1C(=O)O", "assay": "as §2"}, "[9]": {"test_system": "CO/N=C(\\C(=O)N[C@@H]1C(=O)N2C(C(=O)[O-])=C(C[N+]3(C)CCCC3)CS[C@H]12)c1csc(N)n1", "assay": "as §2"}, "[10]": {"test_system": "Nc1nc(/C(=N/O)C(=O)N[C@@H]2C(=O)N3C(C(=O)O)=C(/C=C4\\CCN([C@@H]5CCNC5)C4=O)CS[C@H]23)ns1", "assay": "as §2"}, "[11]": {"test_system": "O=C(Cc1cccs1)N[C@@H]1C(=O)N2C(C(=O)O)=C(/C=C/c3ccc([N+](=O)[O-])cc3[N+](=O)[O-])CS[C@H]12", "assay": "as §2"}, "[12]": {"test_system": "O=C(Cc1cccs1)N[C@@H]1C(=O)N2C(C(=O)[O-])=C(C[n+]3ccccc3)CS[C@H]12", "assay": "as §2"}, "[13]": {"test_system": "CC(C)(O/N=C(\\C(=O)N[C@@H]1C(=O)N2C(C(=O)[O-])=C(C[n+]3ccccc3)CS[C@H]12)c1csc(N)n1)C(=O)O", "assay": "(§3) Activity of Pseudomonas aeruginosa VIM2 assessed as drug hydrolysis by spectrophotometry"}, "[14]": {"test_system": "Nc1nc(/C(=N/O)C(=O)N[C@@H]2C(=O)N3C(C(=O)O)=C(/C=C4\\CCN([C@@H]5CCNC5)C4=O)CS[C@H]23)ns1", "assay": "as §3"}, "[15]": {"test_system": "O=C(Cc1cccs1)N[C@@H]1C(=O)N2C(C(=O)[O-])=C(C[n+]3ccccc3)CS[C@H]12", "assay": "as §3"}, "[16]": {"test_system": "CC(C)(O/N=C(\\C(=O)N[C@@H]1C(=O)N2C(C(=O)[O-])=C(C[n+]3ccccc3)CS[C@H]12)c1csc(N)n1)C(=O)O", "assay": "(§4) Ratio of Kcat to Km of Pseudomonas aeruginosa VIM2 assessed as drug hydrolysis by spectrophotometry"}, "[17]": {"test_system": "O=C(Cc1cccs1)N[C@@H]1C(=O)N2C(C(=O)[O-])=C(C[n+]3ccccc3)CS[C@H]12", "assay": "as §4"}},
  "data": [
    {"substance": "Beta-lactamase (Morganella morganii) (from UniProt P94958)", "values": [
      {"measurement": "Km", "setting": "[1]", "value": 14, "unit": "µM"},
      {"measurement": "kcat", "setting": "[1]", "value": "< 1", "unit": "s⁻¹"},
      {"measurement": "Km", "setting": "[2]", "value": 7.9, "unit": "µM"},
      {"measurement": "kcat", "setting": "[2]", "value": 190, "unit": "s⁻¹"},
      {"measurement": "Km", "setting": "[3]", "value": 690, "unit": "µM"},
      {"measurement": "kcat", "setting": "[3]", "value": "< 0.35", "unit": "s⁻¹"},
      {"measurement": "Km", "setting": "[4]", "value": 23, "unit": "µM"},
      {"measurement": "kcat", "setting": "[4]", "value": "< 0.047", "unit": "s⁻¹"},
      {"measurement": "Km", "setting": "[5]", "value": 31, "unit": "µM"},
      {"measurement": "kcat", "setting": "[5]", "value": 1200, "unit": "s⁻¹"},
      {"measurement": "Km", "setting": "[6]", "value": 260, "unit": "µM"},
      {"measurement": "kcat", "setting": "[6]", "value": 740, "unit": "s⁻¹"},
      {"measurement": "kcat/Km", "setting": "[7]", "value": "< 71000", "unit": "M⁻¹ s⁻¹"},
      {"measurement": "kcat/Km", "setting": "[8]", "value": "2.4e+07", "unit": "M⁻¹ s⁻¹"},
      {"measurement": "kcat/Km", "setting": "[9]", "value": "< 510", "unit": "M⁻¹ s⁻¹"},
      {"measurement": "kcat/Km", "setting": "[10]", "value": "< 2000", "unit": "M⁻¹ s⁻¹"},
      {"measurement": "kcat/Km", "setting": "[11]", "value": "3.9e+07", "unit": "M⁻¹ s⁻¹"},
      {"measurement": "kcat/Km", "setting": "[12]", "value": "2.8e+06", "unit": "M⁻¹ s⁻¹"}
    ]},
    {"substance": "Beta-lactamase VIM-2 (Pseudomonas aeruginosa) (from UniProt Q9K2N0)", "values": [
      {"measurement": "Km", "setting": "[13]", "value": 150, "unit": "µM"},
      {"measurement": "kcat", "setting": "[13]", "value": 0.23, "unit": "s⁻¹"},
      {"measurement": "Km", "setting": "[14]", "value": 46, "unit": "µM"},
      {"measurement": "kcat", "setting": "[14]", "value": 15, "unit": "s⁻¹"},
      {"measurement": "Km", "setting": "[15]", "value": 1400, "unit": "µM"},
      {"measurement": "kcat", "setting": "[15]", "value": 120, "unit": "s⁻¹"},
      {"measurement": "kcat/Km", "setting": "[16]", "value": 1500, "unit": "M⁻¹ s⁻¹"},
      {"measurement": "kcat/Km", "setting": "[17]", "value": 86000, "unit": "M⁻¹ s⁻¹"}
    ]}
  ]
}
